According to patent publication US20240240209A1, “SYNTHESIS OF ENANTIOPURE CIS-A-IRONE FROM A RENEWABLE CARBON SOURCE” (Agency for Science, Technology and Research, priority 2021, published 2024):
Numbering of substitutions follows the chain as printed. Numbers in names are those of the source. Values belong to the molecule of their own block, whether it stands above or below them.

Assays:
[1] = Cell lysate reaction of pMT enzymes with psi-ionone, irones quantified by HS-SPME-GCMS; format: biochemical; settings: for fold change in cis-α-irone produced: AUC vs non-mutated (=1)
Outline: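 pMT1 site-saturation mutants were expressed in E. coli BL21(DE3) and lysed, and lysates were incubated 2 days at 28 °C with 0.2 mM SAM and 10 mg/L psi-ionone (plus caryophyllene) in 50 mM Tris pH 7, 10 mM MgCl2. Cis-α-irone was measured by HS-SPME-GCMS peak area and given as fold change over non-mutated enzyme.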

[2] = Purified pMT7/pMT10 reaction with auxiliary enzymes mtn and mtaD; format: biochemical; settings: for cis-α-irone amount relative to pMT7 reaction alone: purified enzyme
From the text: All the purified enzyme reactions were done in triplicates.
An alternative strategy to reduce SAH inhibition is to introduce auxiliary enzymes that degrade SAH12 (FIG. 18a). […] Noteworthy, with mtaD enzyme, cis-α-irone production by pMT10 was improved by ˜2.5 fold as compared to pMT10 reaction alone (FIG. 3c). […] This somewhat agrees with the effect of mutating D135, which abolishes the hydrogen bond interaction between pMT7 and the amine group of the adenine moiety.

B1: pMT7: pMT1 with Y200F S182E L273V L180A A202L Y65F (protein)
chain: MPQEARTPQQQVTADEVGDWYDKFGEVYHLTLGESVHCGLWFPPDAPVPQDMELVTMSSQAQDRFTDYLIETLDPKAGQHLLDIGCGTGRTALKAARQRGIAVTGVAVSKEQIAAANRLAAGHGLTERLTFEVADAMRLPYEDESFDCAWAIESLCHMDRAKALGEAWRVLKPGGDLLVAEEVVTEELTEPETALFETLFALNVPPRLGEFFDIVSGAGFHTLSLKDLSANLAMTMNVFALGVYSRRAEFTERFGAEFVDGLLAGLGSAQETVIRKTRFFMATLRKPAV
modifications: Modified from pMT1
notes: pMT1 with Y200F S182E L273V L180A A202L Y65F
- cis-α-irone production ([1]; higher as compared to pMT1): 2,450 fold
- fold change in cis-α-irone produced ([1]; pMT6_Y65 mutants): 1.4
- fold change in cis-α-irone produced ([1]; pMT7_T91 mutants): 1.0
- improvement of total turnover number (TTN) ([1]; vs pMT1, TTN = cis-α-irone produced / soluble pMT enzyme): 2,000 fold

- cis-α-irone production improvement with mtaD enzyme ([2]; as compared to pMT10 reaction alone): ~2.5 fold
- cis-α-irone amount relative to pMT7 reaction alone ([2]; with mtaD): ~6.5 fold
- cis-α-irone amount relative to pMT7 reaction alone ([2]; without mtaD): ~4.5 fold
B2: pMT10: pMT1 with Y200F S182E L273V L180A A202L Y65F C156A T91P (protein)
chain: B1 chain with T91P, C156A
modifications: Modified from pMT1
notes: pMT1 with Y200F S182E L273V L180A A202L Y65F C156A T91P
